From PMC8388095, “Specificity of Small c-Type Cytochromes in Anaerobic Ammonium Oxidation” (ACS Omega, 2021) come the findings set out here.

Data set [1] addresses Kuenenia stuttgartiensis hydroxylamine oxidase (Kuenenia stuttgartiensis) (UniProt Q1PX48).
Substrate in the data set “purified protein”: NO
The data set can be described thus: purified protein. The data set is classed as biochemical, Candidatus Kuenenia stuttgartensis. Conditions: electron acceptor 50 μM bovine cytochrome c, 20 mM potassium phosphate pH 7.0, 37 °C, kcat per KsHAO trimer.

Turning to “Kustc0563nt (Kustc0563 after cleavage of the N-terminal His-tag) (natural protein)”, in data set [1], the Vmax NH2OH of hydroxylamine oxidation by KsHAO with 50 μM Kustc0563 as the electron acceptor (reduction of the acceptor followed at 550 nm) came to 15.8 µmol/min/mg and the kcat NH2OH (KsHAO trimer) of hydroxylamine oxidation by KsHAO with 50 μM Kustc0563 as the electron acceptor came to 48.4 s^–1.
On to “bovine (Bos taurus) mitochondrial cytochrome c (from UniProt P62894 1-105) (natural protein)”, for which, in data set [1], the Vmax NH2OH of hydroxylamine oxidation by KsHAO with 50 μM BtCytc as the electron acceptor (reduction of the acceptor followed at 550 nm) turned out to be 2.7 µmol/min/mg and the kcat NH2OH (KsHAO trimer) of hydroxylamine oxidation by KsHAO with 50 μM BtCytc as the electron acceptor worked out at 8.4 s^–1.

B1: KsHAO (Candidatus Kuenenia stuttgartensis) (protein)
chain: CAMENGVAMAEGPTFQDVASQVFGQPVGPDNDGTLYIFGLTAKYTEPEYVDGRGPYKSFLKMLPSIRWYDPEHYWTNGSQTEGVFKNEECVLCHTVQTPTIVNDWKQSSHGSKDIRRGIGIKKDGKPVEDLVGCADCHGNNHQKLEMPTYKLCNDCHPKETAEHRAGGLGSHTHAYTVNVLEFSWHVGKPAEEVTGCAHCHAIAENRCSGCHTRHKFDPAEARKPTACRVCHMGIDHDEWAMYNTSIHGALYEAESARMDWGKKLKKGNYRVPTCAYCHMQNGDHNPQRFGTIYSDMGMFQVDRGAPKHKAKRDSWIKLCQDCHSPRFAADKLKEMDAGVNLSFTKWREAAAVIVGCYLDGVVDPMPEGSAPDWYGHYTFSLLPGGDPRFYATSNLERLGLEMICYLTGNVYKAYAHMSMYNQTYGNGSAFEQDRKLVEIKTEAAKLRRFAAIEKKIGLEHKSADFWKHGEYLDLLPGWKRKPGDVDVEWFKRTDIPHRANADAGVEIHH
notes: octaheme c-type cytochrome, trimeric; preparation not described
For the molecule B1, in the data set “purified protein”, the Michaelis-Menten constant (Km) (commonly the concentration of substrate that gives half-maximal velocity) was 5.8 ± 0.7 µM; the Vmax (as a rule, the top rate of the reaction or transport when substrate is in excess) stood at 2.7 µmol/min/mg; the catalytic constant (kcat) (in general, the maximal rate divided by the concentration of active sites) is 8.4 s⁻¹; the catalytic efficiency (kcat/Km) – broadly, the second-order rate constant that governs catalysis at low substrate concentration – stood at 1.4e+06 M⁻¹ s⁻¹.
